Results as given in IntAct's records for PubMed 16461910.
Each block holds one substance with its values, some of them ahead of it.

Experiments:
dnaa_bacsu dnaA = dnaa_bacsu dnaA (UniProt P05648)
dpo3b_bacsu dnaN = dpo3b_bacsu dnaN (UniProt P05649)
tlpa_bacsu tlpA = tlpa_bacsu tlpA (UniProt P39216)
acub_bacsu acuB = acub_bacsu acuB (UniProt P39066)
acub_bacsu acuB, sequence (P39066 whole entry): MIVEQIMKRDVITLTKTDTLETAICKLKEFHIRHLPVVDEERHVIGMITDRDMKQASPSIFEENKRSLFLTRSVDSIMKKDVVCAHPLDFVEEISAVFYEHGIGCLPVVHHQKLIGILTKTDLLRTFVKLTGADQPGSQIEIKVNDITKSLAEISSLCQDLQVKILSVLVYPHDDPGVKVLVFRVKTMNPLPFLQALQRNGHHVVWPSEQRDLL

dpo3b_bacsu dnaN, sequence (P05649 whole entry): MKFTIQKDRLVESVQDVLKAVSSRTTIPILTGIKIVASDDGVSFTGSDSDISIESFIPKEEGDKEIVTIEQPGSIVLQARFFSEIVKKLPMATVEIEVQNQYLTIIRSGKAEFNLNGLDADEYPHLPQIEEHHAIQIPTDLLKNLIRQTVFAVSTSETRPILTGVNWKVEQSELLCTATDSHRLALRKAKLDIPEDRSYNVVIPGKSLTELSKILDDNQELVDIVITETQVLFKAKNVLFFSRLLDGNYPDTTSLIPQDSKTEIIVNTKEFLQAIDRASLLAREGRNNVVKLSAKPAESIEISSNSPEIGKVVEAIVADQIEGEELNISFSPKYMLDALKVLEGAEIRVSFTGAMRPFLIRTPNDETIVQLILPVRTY
dnaa_bacsu dnaA, sequence (P05648 whole entry): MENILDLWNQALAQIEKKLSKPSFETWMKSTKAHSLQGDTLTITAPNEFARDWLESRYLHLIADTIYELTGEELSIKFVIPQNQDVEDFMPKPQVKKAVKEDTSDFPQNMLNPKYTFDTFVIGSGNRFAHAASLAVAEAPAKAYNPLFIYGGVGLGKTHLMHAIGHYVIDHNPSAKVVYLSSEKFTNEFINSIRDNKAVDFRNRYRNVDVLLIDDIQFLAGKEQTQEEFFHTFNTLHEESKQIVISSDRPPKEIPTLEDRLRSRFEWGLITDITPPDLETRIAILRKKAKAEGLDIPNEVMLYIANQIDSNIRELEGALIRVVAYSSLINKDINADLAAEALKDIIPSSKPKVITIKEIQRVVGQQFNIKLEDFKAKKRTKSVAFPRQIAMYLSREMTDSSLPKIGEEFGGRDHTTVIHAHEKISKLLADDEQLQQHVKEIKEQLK
tlpa_bacsu tlpA, sequence (P39216 whole entry): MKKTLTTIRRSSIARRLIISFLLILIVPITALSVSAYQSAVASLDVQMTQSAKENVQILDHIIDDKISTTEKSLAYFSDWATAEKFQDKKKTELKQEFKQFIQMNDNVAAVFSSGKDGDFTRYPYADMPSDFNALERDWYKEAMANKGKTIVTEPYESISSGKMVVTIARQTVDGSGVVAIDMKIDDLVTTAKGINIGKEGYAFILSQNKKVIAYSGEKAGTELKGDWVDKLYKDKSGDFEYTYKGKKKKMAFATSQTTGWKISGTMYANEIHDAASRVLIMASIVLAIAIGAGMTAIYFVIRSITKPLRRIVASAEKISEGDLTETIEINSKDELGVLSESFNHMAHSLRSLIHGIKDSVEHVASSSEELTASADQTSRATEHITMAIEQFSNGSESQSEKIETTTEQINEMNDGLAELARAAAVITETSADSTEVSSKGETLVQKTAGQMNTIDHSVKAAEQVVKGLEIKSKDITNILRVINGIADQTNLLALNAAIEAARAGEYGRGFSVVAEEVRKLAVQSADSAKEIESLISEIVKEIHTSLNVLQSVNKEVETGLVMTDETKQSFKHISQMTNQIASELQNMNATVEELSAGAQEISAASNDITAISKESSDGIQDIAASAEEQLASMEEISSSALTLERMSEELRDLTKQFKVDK

Substance: Replication initiation control protein YabA (Bacillus subtilis), P37542 L86P
effect of a mutation on the interaction (dnaa_bacsu dnaA): disrupting interaction strength

Substance: Replication initiation control protein YabA (Bacillus subtilis), P37542 L110P
effect of a mutation on the interaction (dpo3b_bacsu dnaN): disrupting interaction strength

The next lines start with the values.

effect of a mutation on the interaction (dnaa_bacsu dnaA): disrupting interaction strength
Substance: Replication initiation control protein YabA (Bacillus subtilis), P37542 N85D

effect of a mutation on the interaction (dpo3b_bacsu dnaN): disrupting interaction strength
Substance: Replication initiation control protein YabA (Bacillus subtilis), P37542 V99A

effect of a mutation on the interaction (dnaa_bacsu dnaA): disrupting interaction strength | effect of a mutation on the interaction (dpo3b_bacsu dnaN): disrupting interaction strength | effect of a mutation on the interaction (tlpa_bacsu tlpA): disrupting interaction strength | effect of a mutation on the interaction (acub_bacsu acuB): disrupting interaction strength
Substance: Replication initiation control protein YabA (Bacillus subtilis), P37542 L27A
